Source: patent US20150351390A1, “COMPOSITIONS AND METHODS FOR AUXIN-ANALOG CONJUGATION” (PIONEER HI-BRED INTERNATIONAL, INC., priority 2012, published 2015)

B1: ZmACN32133: GH3 protein, accession ACN32133 (protein)
chain: MAPTTATAAAVGTKATALGVAACERDVEKLEFIEDKTRNFDAEQVRVLAEILARNNGAEYLRRHGMEGRTDRLAFKACVPVVTYEDLRPEIERIANGDRSNIISSHPITEFLTSSGTSAGERKLMPTIEDELNRRQMLYSLLMPVMNLYVPGLDKGKGLYFLFIKSETKTPGGLPARPVLTSYYKSDHFKHRPYDPYNVYTSPTAAILCTDSFQSMYSQMLCGLVARAEVLRVGAVFASGLLRAIRFLQLHWQELAHDLRTGTLSAKVTEPSIREAVAEVLRPDAGLADLVEAECGKESWEGIITRVWPNTKYLDVIVTGAMAQYIPTLKYYSGGLPMACTMYASSECYFGLNLRPMCDPSEVSYTIMPNMGYFELLPHDPDAVPPSRDDPPPRLLDLADAEVGRDYELVITTYAGLCRYRVGDILHVTGFHNAAPQFRFVRRKNVLLSVDSDKTDEAELQAAVERAARLLAPYDAAIAEYTSQADATTIPGHYVVYWELMVREGGASPDAAVFERCCLEMEEALNAVYRQGRNGDAIGPLEIRVVRGGTFEEVMDYAISRGASINQYKAPRCVSFGPIIELLNSRVVSSHFSPACPTYSPHKK
modifications: Zea mays
B2: SmXP_002973755: GH3 protein, accession XP_002973755 (protein, listed as Selaginella moellendorffii)
chain: MNLEHKEREKQALQFIEKVTSEAAEVQSAVLSAILERNAHTEYLKRHGLNGRTDKTSFRQCLPVITYEDLEPEIQRIANGDTSPILSAHPISEFLTSSGTSAGQRKLMPTISEEFERRCLLYSLLMPVMNQYLPGLDQGKGMYLFFIKSEAKTPGGLLARPVLTSYYKSRYFTERPYDPCNVYTSPNETVLCPDAHQSMYCQLLCGLLQRHEVLRMGAVFASGFLRAIRFLETHWRELCDDIRAGGLNELVVDAAARRAVLALMPRPDPALADDIAEQCRKESWAGIIARLWPNTKYIDVIVTGTMAQYIPTLDYYSGGLPLVCTMYASSECYFGINLQPLCPPSEVSYTLLPNMAYFEFLPIKPKSGKSKAPRVPDPSELVELVDVKMGHEYELVITTYAGLCRYRVGDILRVTGFHNSAPQFAFVCRKNVVLSIDSDKTGEEDLAKAVRSATAGIESSYGARLIEYTSYADTTTIPGHYVLFWELRSSSPIPKDVLEECCLAIEESLDSVYRQGRVSDRSIGPLEIKVVKPGTFDQLMDYALSRGASINQYKTPRCVKFTPIVELLNARVVSSYFSPRLPKWSPVRPQWANSNGVH
B3: ZmACI46149: GH3 protein, accession ACI46149 (protein)
chain: MAVMAEVVSTTGAALRSPASQQPAAAGAAKGTDAEKLQFIEDMTSNVDAVQERVLGEILARNADTEYLAGRCGLAGATDRATFRAKVPMATYEDLQPYIRRIADGDRSPILSGHPVSEFLTSSGTSGGERKLMPTIEDELNRRQLLYSLQMPVMNLYVPGMDKGKALHFLFVKSETKTPGGLAARPVLTSYYKSNHFRNRPFDAYNNYTSPTAAILCADAFQSMYAQMVCGLCQRQDVLRVGAVFASGLLRAIRFLQLNWEQLADDIEAGSLTPRVTDPSVREAVAGILRPDPAVAELVRSECSGGDWAGIVTRIWPNTKYLDVIVTGAMAQYIPTLKHYSGGLPMACTMYASSECYFGLNLRPMCDPSEVSYTLMPNMCYFEFLPMGGAVDASQLVDLARVERGREYELVITTYAGLNRYRVGDVLQVTGFHNSAPQFRFVRRKNVLLSIESDKTDEAELQRAVERASALLRPHGAAVVEYTSQAYTKSIPGHYVVYWELLQAKGGAAVDGETLEGCCLEMEEALNAVYRQSRVADGSIGPLEIRVVRPGTFEELMDYAISRGASINQYKVPRCVTFPPIIELLDSRVVSSHLSPALPHWTAGQRSDSD
modifications: Zea mays
B4: ZmACL52529: GH3 protein, accession ACL52529 (protein)
chain: MSTSHARVKSDSNNGRTRTCDDGGSSGTSGGERKLMPAIADEMDRRSLLYSLLMPVMSQAVPGLDRGRCMYLYFVKAESRTPGGHPARPVLTSFYRSRHFLERPHDPYTVHTSPDEAVLCVDAYQSMYAQLLCGLVHRADVLRVGAVFASGFLRAIRFLEKHWQRLCRDLRRGALGAEVTDRSVRAAVARVLRADPALADAVEAECARPSWQGIIRRVWPGTKYIDVIVTGAMAQYIPTLEFYGGGLPLTCTMYASSESYFGINLNPMCKPSEVAYTLIPTMCYFEFLPLPQPGPGGTDDADPDHRDLVDLVDVKLGHEYELVVTTYSGLYRYRVGDVLRVAGFKNQAPMFKFLRRKNVVLSIDSDKTDEAELHAAVSGAVQHLAPFGASLVEYTSYADAGTIPGHYVLFWELRLRAGDVPVPVPASVFEDCCLAVEEALNSVYRQGRAADRSIGPLEIRVVSDGTFDRLMDYALARGASINQYKVPRCVHPGPVVELLDGRVQASYVSPKCPKWSPGGGKQWSSDAAAKKPAAAAGSNNGGGAVVA
modifications: Zea mays
B5: ZmACI46148: GH3 protein, accession ACI46148 (protein)
chain: MAVMAEVVSTTGAALRSPASQPLPAAVKNADAEKLQFIEEMTSNVDAVQERVLGEILARNAGTEYLAKYGLAAATTDRATFRAKVPMATYEDLQPYIRRIADGDRSPILSGHPVSEFLTSSGTSAGERKLMPTIEDELNRRQLLYSLQMPVMNLYVPGMDKGKALHFLFVKSETKTPGGLAARPVLTSYYKSNHFKNRPFDAYNNYTSPTAAILCADAFQSMYAQMLCGLCQRQDVLRVGAVFASGLLRAIRFLQLNWEQLAEDIEAGSLTPRVTDPSVREAVAGILRADPELAALVRSECSKGDWAGIITRIWPSTKYLDVIVTGAMAQYIPTLKYYSGGLPMACTMYASSECYFGLNLRPMCDPSEVSYTLMPNMCYFEFLPMDSAAASGGDASKLVDLARVEVGREYELVITTYAGLNRYRVGDVLQVTGFHNTAPQFRFVRRKNVLLSIESDKTDEAELQRAVERASALLRPHGAAVVEYTSQAYTKSIPGHYVIYWELLAKGPAGGAAVGEGTLERCCLEMEEALNTVYRQSRVADGSIGPLEIRVVRPGTFEELMDYAISRGASINQYKVPRCVTFPPIIELLDSRVVSSHFSPALPHWTPGQRSDSD
modifications: Zea mays
B6: ZmACL54563: GH3 protein, accession ACL54563 (protein)
chain: MPEAPVVTMRDTAAAAPPATHRDLLEYIERVTAGAAQVQRRVLSEILAQNAPAEYLRRLGVSGAAPGAVEAFRRAAPLVTYEDILPDVLRIANGDTSPILSGKPIREFLTSSGTSGGERKLMPAIADEMDRRSLLYSLLMPVMSQAVPGLDRGRCMYLYFVKAGSRTPGGHPARPVLTSFYRSRHFLERPHDPYTVHTSPDEAVLCVDAYQSMYAQLLCGLVHRADVLRVGAVFASGFLRAIRFLEKHWQRLCRDLRRGALGAEVTDRSVRAAVARVLRADPALADAVEAECARPSWQGIIRRVWPGTKYIDVIVTGAMAQYIPTLEFYGGGLPLTCTMYASSESYFGINLNPMCKPSEVAYTLIPTMCYFEFLPLPQPGPGGTDDADPDHRDLVDLVDVKLGHEYELVVTTYSGLYRYRVGDVLRVAGFKNQAPMFKFLRRKNVVLSIDSDKTDEAELHAAVSGAVQHLAPFGASLVEYTSYADAGTIPGHYVLFWELRLRAGDVPVPVPASVFEDCCLAVEEALNSVYRQGRAADRSIGPLEIRVVSDGTFDRLMDYALARGASINQYKVPRCVHPGPVVELLDGRVQASYVSPKCPKWSPGGGKQWSSDAAAKKPAAAAGSNNGGGAVVA
modifications: Zea mays
B7: AIGH3-1: GH3 protein, accession XP_002885948 (protein, listed as Arabidopsis lyrata)
chain: MAVDSNLSSPLGPPACEKDAKALRFIEEMTRNADTVQENLLAEILARNANTEYLRRFNLGGATDRDTFKTKIPVITYEDLQPEIQRIADGDRSPILSSHPISEFLTSSGTSAGERKLMPTIREELDRRQLLYSLLMPVMNLYVPGLDKGKGMYFLFVKSESKTPGGLPARPVLTSYYKSEHFRSRPYDPYNVYTSPNEAILCPDSFQSMYTQMLCGLLDRLSVLRVGAVFASGLLRAIRFLQLHWSRFANDIELGCLDSEITDPSIRQCMSGILKPDPVLAEFIRRECKSDNWERIITRIWPNTKYLDVIVTGAMAQYIPTLEYYSGGLPMACTMYASSECYFGLNLNPMSKPSEVSYTIMPNMAYFEFIPLGGTKAVELVDVKIGKEYELVVTTYAGLCRYRVGDILRVTGFHNSAPQFHFVRRKNVLLSIDSDKTDESELQKAVENASKILHEECGSRVAEYTSYADTSTIPGHYVLYWELLVRDGARQPSHETITRCCLEMEESLNSVYRQSRVADNSVGPLEIRVVRNGTFEELMDYAISRGASINQYKVPRCVNFTPIVELLDSRVVSAHFSPSLPHWTPERRRR

Assay: LC-MS assay of GH3 conjugation of IAA with Asp or Glu
Type: biochemical
Conditions: conjugation of IAA with Asp by recombinant GH3 protein; IAA-Asp product by LC-MS
Procedure, shortened: (§1)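 N-His-tagged GH3 homologs expressed in E. coli C41(DE3) and Ni-NTA purified (44 to 164 μg/mL) were incubated 3 hours at 30° C. in 20 mM Tris-HCl pH 8.0, 5 mM MgCl2, 1 mM DTT with 5 mM each of auxin, ATP and Asp or Glu. Conjugates were quantified by LC-MS against standards.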
In the case of B1, the “kcat (hrs−1) IAA-Asp” value is reported as 876.059 h⁻¹.
For B2, the “kcat (hrs−1) IAA-Asp” value was 220.320 h⁻¹.
For B3, the “kcat (hrs−1) IAA-Asp” value was 684.072 h⁻¹.
For B4, the “kcat (hrs−1) IAA-Asp” value was 0.000 h⁻¹.
For B5, the “kcat (hrs−1) IAA-Asp” value was 869.016 h⁻¹.
With B6 the “kcat (hrs−1) IAA-Asp” value was 522.629 h⁻¹.
In the case of B7, the “kcat (hrs−1) IAA-Asp” value is reported as 436.828 h⁻¹.

Same assay, conditions: conjugation of IAA with Glu by recombinant GH3 protein; IAA-Glu product by LC-MS
In the case of B1, the “kcat (hrs−1) IAA-Glu” value is reported as 83.547 h⁻¹.
For B2, the “kcat (hrs−1) IAA-Glu” value was 9.285 h⁻¹.
With B3 the “kcat (hrs−1) IAA-Glu” value was 26.467 h⁻¹.
For B4, the “kcat (hrs−1) IAA-Glu” value was 2.149 h⁻¹.
With B5 the “kcat (hrs−1) IAA-Glu” value was 49.496 h⁻¹.
For B6, the “kcat (hrs−1) IAA-Glu” value was 26.015 h⁻¹.
For B7, the “kcat (hrs−1) IAA-Glu” value was 14.961 h⁻¹.

Assay: LC-MS assay of GH3 conjugation of 2,4-D with Asp or Glu
Type: biochemical
Conditions: conjugation of 2,4-D with Asp by recombinant GH3 protein; 2,4-D-Asp product by LC-MS; 5 mM 2,4-D substrate
Procedure, shortened: as §1
With B1 the “kcat (hrs−1) 2,4-D-Asp” value was 0.602 h⁻¹.
In the case of B2, the “kcat (hrs−1) 2,4-D-Asp” value is reported as 1.076 h⁻¹.
With B3 the “kcat (hrs−1) 2,4-D-Asp” value was 2.892 h⁻¹.
For B4, the “kcat (hrs−1) 2,4-D-Asp” value was 0.000 h⁻¹.
For B5, the “kcat (hrs−1) 2,4-D-Asp” value was 2.278 h⁻¹.
For B6, the “kcat (hrs−1) 2,4-D-Asp” value was 3.255 h⁻¹.
In the case of B7, the “kcat (hrs−1) 2,4-D-Asp” value is reported as 2.057 h⁻¹.

Same assay, conditions: conjugation of 2,4-D with Glu by recombinant GH3 protein; 2,4-D-Glu product by LC-MS; 5 mM 2,4-D substrate
For B1, the “kcat (hrs−1) 2,4-D-Glu” value was 0.241 h⁻¹.
With B2 the “kcat (hrs−1) 2,4-D-Glu” value was 0.431 h⁻¹.
In the case of B3, the “kcat (hrs−1) 2,4-D-Glu” value is reported as 0.355 h⁻¹.
In the case of B4, the “kcat (hrs−1) 2,4-D-Glu” value is reported as 0.000 h⁻¹.
For B5, the “kcat (hrs−1) 2,4-D-Glu” value was 0.401 h⁻¹.
In the case of B6, the “kcat (hrs−1) 2,4-D-Glu” value is reported as 0.993 h⁻¹.
For B7, the “kcat (hrs−1) 2,4-D-Glu” value was 0.525 h⁻¹.
